Values belong to the binder of their own block, whether it stands above or below them.
Key:
[1] = target: M44-modified S NTAA target peptides; assay: encoding assay; P2 L
[2] = target: M44-modified E NTAA target peptides; assay: encoding assay; P2 L;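 also: fraction of recording tags encoded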
[3] = target: M44-modified Q NTAA target peptides; assay: encoding assay; P2 L
[4] = target: M44-modified T NTAA target peptides; assay: encoding assay; P2 L
[5] = target: M44-modified P NTAA target peptides; assay: encoding assay; P2 L;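 also: fraction of recording tags encoded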
[6] = target: M44-modified Y NTAA target peptides (M44-Y-P2-peptide); assay: encoding assay; P2 L;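 also: fraction of recording tags encoded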
[7] = target: M44-modified V NTAA target peptides; assay: encoding assay; P2 L;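 also: fraction of recording tags encoded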
[8] = target: M44-modified W NTAA target peptides; assay: encoding assay; P2 L;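 also: fraction of recording tags encoded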
[9] = target: M44-modified D NTAA target peptides; assay: encoding assay; P2 L;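 also: fraction of recording tags encoded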
[10] = target: M44-modified A NTAA target peptides (M44-A-P2-peptide); assay: encoding assay; P2 L
[11] = target: M44-modified M NTAA target peptides; assay: encoding assay; P2 L
[12] = target: M44-modified G NTAA target peptides (M44-G-P2-peptide); assay: encoding assay; P2 L;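 also: fraction of recording tags encoded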
[13] = target: M44-modified L NTAA target peptides (M44-L-P2-peptide); assay: encoding assay; P2 L;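 also: fraction of recording tags encoded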
[14] = target: M44-modified F NTAA target peptides (M44-F-P2-peptide); assay: encoding assay; P2 L;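 also: fraction of recording tags encoded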
[15] = target: M44-modified H NTAA target peptides; assay: encoding assay; P2 L
[16] = target: M44-modified N NTAA target peptides; assay: encoding assay; P2 L
[17] = target: M44-modified I NTAA target peptides (M44-I-P2-peptide); assay: encoding assay; P2 L
[18] = target: M44-modified Q NTAA target peptides; assay: encoding assay; P2 A
[19] = target: M44-modified Y NTAA target peptides (M44-Y-P2-peptide); assay: encoding assay; P2 A;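 also: fraction of recording tags encoded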
[20] = target: M44-modified V NTAA target peptides; assay: encoding assay; P2 A;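 also: fraction of recording tags encoded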
[21] = target: M44-modified W NTAA target peptides; assay: encoding assay; P2 A;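 also: fraction of recording tags encoded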
[22] = target: M44-modified A NTAA target peptides (M44-A-P2-peptide); assay: encoding assay; P2 A
[23] = target: M44-modified M NTAA target peptides; assay: encoding assay; P2 A
[24] = target: M44-modified G NTAA target peptides (M44-G-P2-peptide); assay: encoding assay; P2 A;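 also: fraction of recording tags encoded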
[25] = target: M44-modified L NTAA target peptides (M44-L-P2-peptide); assay: encoding assay; P2 A;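 also: fraction of recording tags encoded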
[26] = target: M44-modified F NTAA target peptides (M44-F-P2-peptide); assay: encoding assay; P2 A;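 also: fraction of recording tags encoded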
[27] = target: M44-modified H NTAA target peptides; assay: encoding assay; P2 A
[28] = target: M44-modified N NTAA target peptides; assay: encoding assay; P2 A
[29] = target: M44-modified I NTAA target peptides (M44-I-P2-peptide); assay: encoding assay; P2 A
[30] = target: M44-modified Q NTAA target peptides; assay: encoding assay; P2 H
[31] = target: M44-modified T NTAA target peptides; assay: encoding assay; P2 H
[32] = target: M44-modified P NTAA target peptides; assay: encoding assay; P2 H;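 also: fraction of recording tags encoded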
[33] = target: M44-modified Y NTAA target peptides (M44-Y-P2-peptide); assay: encoding assay; P2 H;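 also: fraction of recording tags encoded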
[34] = target: M44-modified V NTAA target peptides; assay: encoding assay; P2 H;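 also: fraction of recording tags encoded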
[35] = target: M44-modified W NTAA target peptides; assay: encoding assay; P2 H;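 also: fraction of recording tags encoded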
[36] = target: M44-modified D NTAA target peptides; assay: encoding assay; P2 H;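 also: fraction of recording tags encoded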
[37] = target: M44-modified A NTAA target peptides (M44-A-P2-peptide); assay: encoding assay; P2 H
[38] = target: M44-modified M NTAA target peptides; assay: encoding assay; P2 H
[39] = target: M44-modified L NTAA target peptides (M44-L-P2-peptide); assay: encoding assay; P2 H;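 also: fraction of recording tags encoded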
[40] = target: M44-modified F NTAA target peptides (M44-F-P2-peptide); assay: encoding assay; P2 H;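 also: fraction of recording tags encoded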
[41] = target: M44-modified H NTAA target peptides; assay: encoding assay; P2 H
[42] = target: M44-modified N NTAA target peptides; assay: encoding assay; P2 H
[43] = target: M44-modified I NTAA target peptides (M44-I-P2-peptide); assay: encoding assay; P2 H
[44] = target: M44-modified L NTAA target peptides (M44-L-P2-peptide); assay: encoding assay; P2 G;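 also: fraction of recording tags encoded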
[45] = target: M44-modified F NTAA target peptides (M44-F-P2-peptide); assay: encoding assay; P2 G;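 also: fraction of recording tags encoded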
[46] = target: M44-modified T NTAA target peptides; assay: encoding assay; P2 I
[47] = target: M44-modified V NTAA target peptides; assay: encoding assay; P2 I;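 also: fraction of recording tags encoded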
[48] = target: M44-modified L NTAA target peptides (M44-L-P2-peptide); assay: encoding assay; P2 I;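 also: fraction of recording tags encoded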
[49] = target: M44-modified F NTAA target peptides (M44-F-P2-peptide); assay: encoding assay; P2 I;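 also: fraction of recording tags encoded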
[50] = target: M44-modified N NTAA target peptides; assay: encoding assay; P2 I

encoding yield [1]: 0.05 | encoding yield [2]: 0.03 | encoding yield [3]: 0.04 | encoding yield [4]: 0.02 | encoding yield [5]: 0.02 | encoding yield [6]: 0.09 | encoding yield [7]: 0.04 | encoding yield [8]: 0.05 | encoding yield [9]: 0.03 | encoding yield [10]: 0.03 | encoding yield [11]: 0.08 | encoding yield [12]: 0.02 | encoding yield [13]: 0.46 | encoding yield [14]: 0.06 | encoding yield [15]: 0.03 | encoding yield [16]: 0.17 | encoding yield [17]: 0.06 | encoding yield [18]: 0.02 | encoding yield [19]: 0.04 | encoding yield [20]: 0.02 | encoding yield [21]: 0.08 | encoding yield [22]: 0.02 | encoding yield [23]: 0.05 | encoding yield [24]: 0.03 | encoding yield [25]: 0.14 | encoding yield [26]: 0.11 | encoding yield [27]: 0.01 | encoding yield [28]: 0.02 | encoding yield [29]: 0.07 | encoding yield [30]: 0.03 | encoding yield [31]: 0.02 | encoding yield [32]: 0.03 | encoding yield [33]: 0.05 | encoding yield [34]: 0.02 | encoding yield [35]: 0.03 | encoding yield [36]: 0.02 | encoding yield [37]: 0.02 | encoding yield [38]: 0.03 | encoding yield [39]: 0.02 | encoding yield [40]: 0.01 | encoding yield [41]: 0.02 | encoding yield [42]: 0.03 | encoding yield [43]: 0.02 | encoding yield [44]: 0.09 | encoding yield [45]: 0.09 | encoding yield [46]: 0.04 | encoding yield [47]: 0.06 | encoding yield [48]: 0.15 | encoding yield [49]: 0.05 | encoding yield [50]: 0.05
B1: engineered M44-L binder (SEQ ID NO: 31) (designed binder, not shown: small tags and cut ends; large carriers)
chain: QDSTQNLIPAPPLISVPLQPGFWTERFQGRWFLVGFAGNAVQKERQSRLTMQSLILELQEDNSYNITAINVRGQGCRYIISTLVPSSRPGQFTLGNIHSYPQIQSLDVQVADTDYDQFAMVFLQGTSENKQYFEVALAGRTKGLSDELKERFVSFAKSLGLKDNNIVFSVPTDQCIDN

encoding yield [1]: 0.02 | encoding yield [2]: 0.01 | encoding yield [3]: 0.02 | encoding yield [4]: 0.01 | encoding yield [5]: 0.01 | encoding yield [6]: 0.03 | encoding yield [7]: 0.02 | encoding yield [8]: 0.02 | encoding yield [9]: 0.01 | encoding yield [10]: 0.01 | encoding yield [11]: 0.03 | encoding yield [12]: 0.01 | encoding yield [13]: 0.22 | encoding yield [14]: 0.01 | encoding yield [15]: 0.01 | encoding yield [16]: 0.02 | encoding yield [17]: 0.03 | encoding yield [18]: 0.01 | encoding yield [19]: 0.01 | encoding yield [20]: 0.01 | encoding yield [21]: 0.01 | encoding yield [22]: 0.01 | encoding yield [23]: 0.06 | encoding yield [24]: 0.01 | encoding yield [25]: 0.19 | encoding yield [26]: 0.07 | encoding yield [27]: 0.01 | encoding yield [28]: 0.01 | encoding yield [29]: 0.29 | encoding yield [30]: 0.01 | encoding yield [31]: 0.01 | encoding yield [32]: 0.01 | encoding yield [33]: 0.02 | encoding yield [34]: 0.01 | encoding yield [35]: 0.01 | encoding yield [36]: 0.01 | encoding yield [37]: 0.01 | encoding yield [38]: 0.01 | encoding yield [39]: 0 | encoding yield [40]: 0.01 | encoding yield [41]: 0.01 | encoding yield [42]: 0.01 | encoding yield [43]: 0.01 | encoding yield [44]: 0.07 | encoding yield [45]: 0.03 | encoding yield [46]: 0.01 | encoding yield [47]: 0.03 | encoding yield [48]: 0.06 | encoding yield [49]: 0.01 | encoding yield [50]: 0.01
B2: engineered M44-L binder (SEQ ID NO: 21) (designed binder, not shown: small tags and cut ends; large carriers)
chain: QVSVQPNFQQDKFLGRWFYAGHASNSSWYREKVAALSMAKLVVAPATDGGLNATETFLRKNQCETITSLLQPAGSLGSYSSRSPHGGSTWSTSVVETDYDQYALLYLQGSKGPGEDFRGAILASRTQTPRAELKEKFTAFSKAQGFTEDTIVFLPQTDKCMTEQ

encoding yield [1]: 0.27 | encoding yield [2]: 0.03 | encoding yield [3]: 0.04 | encoding yield [4]: 0.11 | encoding yield [5]: 0.02 | encoding yield [6]: 0.07 | encoding yield [7]: 0.15 | encoding yield [8]: 0.02 | encoding yield [9]: 0.02 | encoding yield [10]: 0.37 | encoding yield [11]: 0.04 | encoding yield [12]: 0.16 | encoding yield [13]: 0.18 | encoding yield [14]: 0.02 | encoding yield [15]: 0.03 | encoding yield [16]: 0.05 | encoding yield [17]: 0.03 | encoding yield [18]: 0.03 | encoding yield [19]: 0.03 | encoding yield [20]: 0.03 | encoding yield [21]: 0.03 | encoding yield [22]: 0.11 | encoding yield [23]: 0.03 | encoding yield [24]: 0.04 | encoding yield [25]: 0.04 | encoding yield [26]: 0.06 | encoding yield [27]: 0.01 | encoding yield [28]: 0.02 | encoding yield [29]: 0.05 | encoding yield [30]: 0.05 | encoding yield [31]: 0.04 | encoding yield [32]: 0.05 | encoding yield [33]: 0.07 | encoding yield [34]: 0.03 | encoding yield [35]: 0.03 | encoding yield [36]: 0.04 | encoding yield [37]: 0.05 | encoding yield [38]: 0.04 | encoding yield [39]: 0.03 | encoding yield [40]: 0.02 | encoding yield [41]: 0.02 | encoding yield [42]: 0.05 | encoding yield [43]: 0.04 | encoding yield [44]: 0.03 | encoding yield [45]: 0.04 | encoding yield [46]: 0.12 | encoding yield [47]: 0.11 | encoding yield [48]: 0.03 | encoding yield [49]: 0.02 | encoding yield [50]: 0.03
B3: engineered M44-A binder (SEQ ID NO: 42) (designed binder, not shown: small tags and cut ends; large carriers)
chain: QVSVQPNFQQDKFLGRWFVAGLASNSSWDREKVAALSGAKMVVAPATDGGLNVTRTMLRKNQCETYTGLLQPAGSLGSYSWRSPHPGSTGSESVVETDYDQYALVYGQGSKGPGEDLRAAALWSRTQTPRAELKEKFTAFSKAQGFTEDTIVFLPQTDKCMTEQ

Source: patent US20230220589A1
